# Data: article PMC8256705, “Putative hexameric glycosyltransferase functional unit revealed by the crystal structure of Acinetobacter baumannii MurG” (IUCrJ, 2021)
# B1: MurG from Acinetobacter baumannii (abMurG), full length, wild type (enzyme, UniProt A3M9Y1 1-365, looked up)
# chain: MTDSQQSKPKHVMMMAAGTGGHVFPALAVAKQLQQQGCQVSWLATPTGMENRLLKDQNIPIYQIDIQGVRGNGVIRKLAAPFKILKATFSAMRYMKQLKVDAVAGFGGYVAGPGGLAARLLGIPVLIHEQNAVAGFTNAQLSRVAKVVCEAFPNTFPASEKVVTTGNPVRREITDILSPKWRYDEREQADKPLNILIVGGSLGAKALNERLPPALKQLEVPLNIFHQCGQQQVEATQALYADAPANLTIQVLPFIEDMAKAYSEADLIICRAGALTVTEVATAGVAAVFVPLPIAVDDHQTANAKFLADIGAAKICQQSTMTPEVLNQLFTTLMNRQLLTEMAVKARQHAQPNATQHVVDLIQKM
# notes: MurG glycosyltransferase of Acinetobacter baumannii, full length, amino acids Met1-Met365 (365 amino acids); Theoretical mass with the C-terminal His tag is printed as 39.4 kDa; Found as a dimer and as a hexamer in solution; only the large-size SEC peak crystallized; also called wild-type abMurG; source: E. coli BL21 (DE3), purified (nickel-nitrilotriacetic acid resin, SEC); not shown: His tag, …
# How the values were obtained:
# [1] = biological target: the molecule itself; experiment: SEC-MALS; highly oligomeric SEC peak; Superdex 200 10/300, 20 mM Tris-HCl pH 8.0, 150 mM NaCl, 0.4 ml/min, 25°C
# [2] = biological target: the molecule itself; experiment: SEC-MALS; dimer-sized SEC peak; Superdex 200 10/300, 20 mM Tris-HCl pH 8.0, 150 mM NaCl, 0.4 ml/min, 25°C
protein,measurement,setting,value
B1,stoichiometry N,[1],6
same,stoichiometry N,[2],2
